Measurements reported in article PMC3787073 (PLoS ONE, 2013).
Like-named read-outs stand apart in the source and are kept apart here.

B1: Recombinant Sc-KU-4 (BPTI-Kunitz family serine protease inhibitor of Steinernema carpocapsae) (natural protein)
chain: FPLFEFNCSALKDSGSGSNVTRQFYFDPDWNTCLAFNYNGTGGNTNRFETKEDCELLCVPAGSTCKGPSKTVVQPLKEAFRCDDSVCPSTHKCLMGMVPVCCDKENQEAFNQAVADTCPDGTKADGIFDLYFRAVYAHSCEDLICDENHKCVQVNKHFAKCCSKE
notes: not shown: His6, C-terminal, kept

What was measured:
Experiment in all cases: enzyme inhibition kinetics (Dixon plot)
[1] = target: α-chymotrypsin from bovine pancreas (bovine)
[2] = target: α-chymotrypsin from bovine pancreas (bovine); remark: listed apart in the source
[3] = target: elastase from bovine pancreas (bovine, UniProt Q28153 27-266); settings: both partners purified
Chain of elastase from bovine pancreas (Q28153 27-266): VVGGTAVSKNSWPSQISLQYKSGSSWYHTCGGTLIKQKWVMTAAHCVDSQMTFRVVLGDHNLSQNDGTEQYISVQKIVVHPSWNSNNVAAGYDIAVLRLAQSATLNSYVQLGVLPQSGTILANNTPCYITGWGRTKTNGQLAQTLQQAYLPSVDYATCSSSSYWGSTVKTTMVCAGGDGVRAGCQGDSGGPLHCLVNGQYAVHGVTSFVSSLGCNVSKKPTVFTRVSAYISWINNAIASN

Molecule	Ki [1] [nM]	Ki [2] [nM]	Ki [3] [nM]
Recombinant Sc-KU-4 (BPTI-Kunitz family serine protease inhibitor of Steinernema carpocapsae) (from UniProt E2IPQ6) (natural protein)	1.8	2.6	
B1			2.6
